{
  "source": "IntAct's records for PubMed 23615222",
  "parents": {"B1": {"name": "Thioredoxin H1 (Arabidopsis thaliana (Mouse-ear cress)), P29448 (parent)", "chain": "MASEEGQVIACHTVETWNEQLQKANESKTLVVVDFTASWCGPCRFIAPFFADLAKKLPNVLFLKVDTDELKSVASDWAIQAMPTFMFLKEGKILDKVVGAKKDELQSTIAKHLA"}},
  "data": [
    {"variants_of": "B1", "details": "with cdpkl_arath CPK21, Q9ZSA2", "values": [
      {"variant": "MASEEGQVIACHTVETWNEQLQKANESKTLVVVDFTASWCGPSRFIAPFFADLAKKLPNVLFLKVDTDELKSVASDWAIQAMPTFMFLKEGKILDKVVGAKKDELQSTIAKHLA", "note": "[C43S]", "effect of a mutation on the interaction": "increasing interaction"}
    ]}
  ]
}
